The target in this series is NbWRKY40 (GST fusion implied by GST control) (Nicotiana benthamiana, UniProt A0A7T1TE48 1-255). The series is described as follows: EMSA; LightShift Chemiluminescent EMSA Kit (Thermo Scientific), manufacturer's instructions; buffer, salt, pH and temperature not stated. To be noted: protein: recombinant; label: biotin (end label); blunt.
Chain of NbWRKY40 (GST fusion implied by GST control) (A0A7T1TE48 entry or part of it): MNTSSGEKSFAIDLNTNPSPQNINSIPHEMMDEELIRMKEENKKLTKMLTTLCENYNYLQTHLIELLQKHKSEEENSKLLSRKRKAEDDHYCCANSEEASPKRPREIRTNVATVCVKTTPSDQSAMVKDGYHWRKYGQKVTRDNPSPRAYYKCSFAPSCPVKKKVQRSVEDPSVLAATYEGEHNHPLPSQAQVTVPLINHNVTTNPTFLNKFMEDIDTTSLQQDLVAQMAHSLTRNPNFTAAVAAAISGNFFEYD

B1: NbICS1 promoter W-box fragment (84 bp) (dsDNA)
DNA 1: TAGTACAGAATATGAAGAAAGCTTTGCATATGGTGTTTATTGACCTAGAGAAAGTGTACATCAAGGTCCCTAGGGATGTCCTTT
DNA 2: AAAGGACATCCCTAGGGACCTTGATGTACACTTTCTCTAGGTCAATAAACACCATATGCAAAGCTTTCTTCATATTCTGTACTA
For the molecule B1, the binding result is listed as “binds”.

(Values after publication PMC7857026, “NbWRKY40 Positively Regulates the Response of Nicotiana benthamiana to Tomato Mosaic Virus via Salicylic Acid Signaling”.)
